One data set deals with T1, KstD2 (Rhodococcus ruber, UniProt I0B6I6).
T1 sequence (I0B6I6 1-564): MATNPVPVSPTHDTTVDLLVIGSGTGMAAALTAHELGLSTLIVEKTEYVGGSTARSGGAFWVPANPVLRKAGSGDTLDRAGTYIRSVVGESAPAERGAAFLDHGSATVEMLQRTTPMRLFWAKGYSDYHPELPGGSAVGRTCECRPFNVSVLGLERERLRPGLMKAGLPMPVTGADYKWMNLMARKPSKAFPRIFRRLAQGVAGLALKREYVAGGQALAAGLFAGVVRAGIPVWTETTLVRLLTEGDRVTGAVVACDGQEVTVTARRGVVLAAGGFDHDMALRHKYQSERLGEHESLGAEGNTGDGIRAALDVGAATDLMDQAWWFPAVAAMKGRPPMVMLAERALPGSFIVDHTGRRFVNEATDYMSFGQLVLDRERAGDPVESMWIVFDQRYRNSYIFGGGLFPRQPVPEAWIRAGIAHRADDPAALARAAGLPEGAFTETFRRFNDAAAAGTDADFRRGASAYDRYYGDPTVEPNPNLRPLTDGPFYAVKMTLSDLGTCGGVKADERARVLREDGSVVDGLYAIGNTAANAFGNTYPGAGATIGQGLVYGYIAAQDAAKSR
Put plainly: DCPIP reduction at […] nm, cell-free extract, Michaelis-Menten fit. The settings on record: read-out: KstD2 / Km; 80 µM DCPIP as electron acceptor, 50 mM Tris pH 7, 30 °C.

In the next data set the target is T2, KstD1 (Rhodococcus ruber, UniProt I0B6J0).
T2 sequence (I0B6J0 1-511): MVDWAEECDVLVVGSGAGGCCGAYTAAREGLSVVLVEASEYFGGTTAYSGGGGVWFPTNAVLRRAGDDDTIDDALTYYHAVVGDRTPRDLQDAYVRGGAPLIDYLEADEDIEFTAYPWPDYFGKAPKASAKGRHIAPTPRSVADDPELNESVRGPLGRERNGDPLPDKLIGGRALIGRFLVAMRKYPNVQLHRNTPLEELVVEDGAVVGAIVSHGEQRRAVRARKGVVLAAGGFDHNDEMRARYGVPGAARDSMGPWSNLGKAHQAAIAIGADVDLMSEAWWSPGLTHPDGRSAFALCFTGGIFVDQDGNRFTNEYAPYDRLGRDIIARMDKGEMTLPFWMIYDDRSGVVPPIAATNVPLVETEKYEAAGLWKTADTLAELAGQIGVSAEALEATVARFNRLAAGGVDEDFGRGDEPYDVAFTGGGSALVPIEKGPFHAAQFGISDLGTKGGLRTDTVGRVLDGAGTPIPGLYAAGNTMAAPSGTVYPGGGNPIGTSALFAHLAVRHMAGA
The data set is described as above. Conditions: read-out: KstD1 / Km; 80 µM DCPIP as electron acceptor, 50 mM Tris pH 7, 30 °C.

Substrate in data set [1]: CC(=O)[C@H]1CC[C@H]2[C@@H]3CCC4=CC(=O)CC[C@]4(C)[C@H]3CC[C@]12C
The experiment in a line: cells, lysate or membranes. The settings on record: 80 µM DCPIP as electron acceptor, 50 mM Tris pH 7, 30 °C.

Substrate in data set [2]: C[C@H](C(=O)O)[C@H]1CC[C@H]2[C@@H]3CCC4=CC(=O)CC[C@]4(C)[C@H]3CC[C@]12C
The experiment in a line: cells, lysate or membranes. The settings on record: 80 µM DCPIP as electron acceptor, 50 mM Tris pH 7, 30 °C.

Substrate in data set [3]: C[C@]12CCC(=O)C=C1CC[C@@H]1[C@@H]2CC[C@]2(C)C(=O)CC[C@@H]12
Put plainly: cells, lysate or membranes. The settings on record: pH 7.0; 30.0 °C.

Substrate in data set [4]: C[C@]12CC[C@H]3[C@@H](CCC4=CC(=O)CC[C@@]43C)[C@@H]1CC[C@@H]2C(=O)CO
The experiment in a line: cells, lysate or membranes. The settings on record: 80 µM DCPIP as electron acceptor, 50 mM Tris pH 7, 30 °C.

Substrate in data set [5]: C[C@]12CC[C@H]3[C@@H](CCC4=CC(=O)CC[C@@]43C)[C@@H]1CC[C@@H]2O
Put plainly: cells, lysate or membranes. The settings on record: pH 7.0; 30.0 °C.

Substrate in data set [6]: C[C@]12C[C@H](O)[C@H]3[C@@H](CCC4=CC(=O)CC[C@@]43C)[C@@H]1CC[C@@H]2C(=O)CO
Put plainly: cells, lysate or membranes. The settings on record: 80 µM DCPIP as electron acceptor, 50 mM Tris pH 7, 30 °C.

Substrate in data set [7]: [H][C@@]12CCC3=CC(=O)CC[C@]3(CO)[C@@]1([H])CC[C@]1(C)C(=O)CC[C@@]21[H]
Put plainly: cells, lysate or membranes. The settings on record: pH 7.0; 30.0 °C.

Substrate in data set [8]: C[C@]12CCC(=O)C[C@@H]1CC[C@@H]1[C@@H]2CC[C@]2(C)[C@@H](O)CC[C@@H]12
Put plainly: cells, lysate or membranes.

On to `C[C@]12CCC(=O)C=C1CC[C@H]1[C@@H]3CCC(=O)[C@@]3(C)CC[C@@]12O` [9OHAD, 9α-hydroxy-4-androstene-3,17-dione], for which the results for the Km on KstD2 and on KstD1 were 543 ± 77.8 µM and 22.1 ± 7 µM, respectively.

B1: KstD1 (Rhodococcus ruber) (protein)
chain: MVDWAEECDVLVVGSGAGGCCGAYTAAREGLSVVLVEASEYFGGTTAYSGGGGVWFPTNAVLRRAGDDDTIDDALTYYHAVVGDRTPRDLQDAYVRGGAPLIDYLEADEDIEFTAYPWPDYFGKAPKASAKGRHIAPTPRSVADDPELNESVRGPLGRERNGDPLPDKLIGGRALIGRFLVAMRKYPNVQLHRNTPLEELVVEDGAVVGAIVSHGEQRRAVRARKGVVLAAGGFDHNDEMRARYGVPGAARDSMGPWSNLGKAHQAAIAIGADVDLMSEAWWSPGLTHPDGRSAFALCFTGGIFVDQDGNRFTNEYAPYDRLGRDIIARMDKGEMTLPFWMIYDDRSGVVPPIAATNVPLVETEKYEAAGLWKTADTLAELAGQIGVSAEALEATVARFNRLAAGGVDEDFGRGDEPYDVAFTGGGSALVPIEKGPFHAAQFGISDLGTKGGLRTDTVGRVLDGAGTPIPGLYAAGNTMAAPSGTVYPGGGNPIGTSALFAHLAVRHMAGA
B1: the Km in data set [1] was determined as 27.9 ± 9.5 µM; in [2], 76.1 ± 15.7 µM; in [3], 34.2 ± 3.8 µM; in [4], 21.6 ± 4.5 µM; in data set [5] it was 28.8 ± 7.4 µM; in data set [6] it was 161.6 ± 7.6 µM. The Km in [7] worked out at 368.8 ± 102.4 µM.

B2: KstD2 (Rhodococcus ruber) (protein)
chain: MATNPVPVSPTHDTTVDLLVIGSGTGMAAALTAHELGLSTLIVEKTEYVGGSTARSGGAFWVPANPVLRKAGSGDTLDRAGTYIRSVVGESAPAERGAAFLDHGSATVEMLQRTTPMRLFWAKGYSDYHPELPGGSAVGRTCECRPFNVSVLGLERERLRPGLMKAGLPMPVTGADYKWMNLMARKPSKAFPRIFRRLAQGVAGLALKREYVAGGQALAAGLFAGVVRAGIPVWTETTLVRLLTEGDRVTGAVVACDGQEVTVTARRGVVLAAGGFDHDMALRHKYQSERLGEHESLGAEGNTGDGIRAALDVGAATDLMDQAWWFPAVAAMKGRPPMVMLAERALPGSFIVDHTGRRFVNEATDYMSFGQLVLDRERAGDPVESMWIVFDQRYRNSYIFGGGLFPRQPVPEAWIRAGIAHRADDPAALARAAGLPEGAFTETFRRFNDAAAAGTDADFRRGASAYDRYYGDPTVEPNPNLRPLTDGPFYAVKMTLSDLGTCGGVKADERARVLREDGSVVDGLYAIGNTAANAFGNTYPGAGATIGQGLVYGYIAAQDAAKSR
Regarding B2, the Km in data set [1] turned out to be 33.8 ± 4.9 µM; in [2] it was 38.2 ± 6.6 µM; in data set [3], 40.1 ± 8.7 µM; in data set [8] (pH 7.0, 30.0 °C) it was 24.57 ± 7.8 µM; in data set [4], 42.5 ± 5.8 µM; in data set [5], 107.9 ± 18.5 µM. For the same molecule, the Km in data set [6] was 374.3 ± 74.5 µM; in data set [7], 347.4 ± 41.7 µM.

B3: KstD3 (Rhodococcus ruber) (protein)
chain: MIKQEYDIVVVGSGAGGMTAALTAAHRGASVVLVEKAPHYGGSSARSGGGVWIPNNEVLGAAGVTDTPEAARTYLHSIIGDVVPAGKIDTYIDRGPEMLSFVLEHSALELQWVPGYSDYYPEAPGGRLGGRSVEPKPFDGKRLGDDLALLEPDYVKGPPNFVITQADYKWLNLLMRNPRGPVRAAKVGVRYLWARARRRHLLVRGQALMAGLRMGLRDAGVPLLLNTALTDLVVEDGVVRGVRVESDGQQRTVRARRGVVIASGGFEHNEQMRTQYQRAPIGTEWTVGAKANTGDGIRAGQSLGAAVDFMDDAWWGPSFPLTGGPWFALSERSLPGSMMVNAAGRRFVNESAPYVEAVHAMYGGRHGRGDGPGENIPCWMILDQRYRNRYTFAGITPRSPFPKRWLKAGVVVRAGSIAELAGKIGVPAAALTATVERFNGFARAGRDEDFGRGESGYDHYYGDPRNKPNPSLGVIDKAPFYAIKVVPGDLGTKGGLRTDADARVLREDGTVIEGLYAAGNASGPVMGHTYAGPGATIGPAMTFAYLAVLDALARPEQPAVPPVSETVEQH
On to B3, for which the Km in data set [1] is on record as 43.6 ± 2.9 µM; in [8] (80 µM DCPIP as electron acceptor, 50 mM Tris pH 7, 30 °C), 181.1 ± 42.6 µM; in [4] it was 111.3 ± 4.0 µM.

The record behind these values is paper PMC5348764, “Functional differentiation of 3-ketosteroid Δ^1-dehydrogenase isozymes in Rhodococcus ruber strain Chol-4” (Microbial Cell Factories, 2017).
